B1: KLHDC10 (parent)
chain: PSLLELAWEKLLAAFPNLANLSRT

Variants of: B1
Experiment: protein stability index of a GFP-peptide fusion (GPS, HEK-293T) (PSI 1-6); higher = more stable
Conditions: c terminus: a fixed tail appended
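Note: lentivirally expressed fusions sorted by FACS into six bins by GFP to DsRed ratio, PSI derived from sequencing read proportions per bin multiplied by bin number.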

Row | Variant | protein stability index
1 | PSLLELAWEKHLAAFPNLANLSRT | 1.92
2 | PSLLELAWEKCLAAFPNLANLSRT | 1.88
3 | PSLLELAWEKALAAFPNLANLSRT | 2.36
4 | PSLLELAWEKMLAAFPNLANLSRT | 1.6
5 | PSLLELAWEKNLAAFPNLANLSRT | 2.26
6 | PSLLELAWEKGLAAFPNLANLSRT | 1.69
7 | PSLLELAWEKRLAAFPNLANLSRT | 2.07
8 | PSLLELAWEKELAAFPNLANLSRT | 2.55
9 | PSLLELAWEKYLAAFPNLANLSRT | 2.19
10 | PSLLELAWEKKLAAFPNLANLSRT | 1.62
11 | PSLLELAWEKSLAAFPNLANLSRT | 2.2
12 | PSLLELAWEKQLAAFPNLANLSRT | 2.19
13 | PSLLELAWEKWLAAFPNLANLSRT | 2.06
14 | PSLLELAWEKTLAAFPNLANLSRT | 1.92
15 | PSLLELAWEKVLAAFPNLANLSRT | 2.5
16 | PSLLELAWEKILAAFPNLANLSRT | 2.23
17 | PSLLELAWEKDLAAFPNLANLSRT | 2.14
18 | PSLLELAWEKFLAAFPNLANLSRT | 2.29
19 | PSLLELAWEKPLAAFPNLANLSRT | 2.39
20 | PSLLELRWEKLLAAFPNLANLSRT | 2.35
21 | PSLLELCWEKLLAAFPNLANLSRT | 2.23
22 | PSLLELYWEKLLAAFPNLANLSRT | 2.08
23 | PSLLELVWEKLLAAFPNLANLSRT | 2.22
24 | PSLLELKWEKLLAAFPNLANLSRT | 2.73

Row | Variant | protein stability index
25 | PSLLELIWEKLLAAFPNLANLSRT | 1.97
26 | PSLLELSWEKLLAAFPNLANLSRT | 2.58
27 | PSLLELWWEKLLAAFPNLANLSRT | 1.84
28 | PSLLELMWEKLLAAFPNLANLSRT | 2.33
29 | PSLLELNWEKLLAAFPNLANLSRT | 2.28
30 | PSLLELHWEKLLAAFPNLANLSRT | 1.33
31 | PSLLELPWEKLLAAFPNLANLSRT | 1.77
32 | PSLLELQWEKLLAAFPNLANLSRT | 2.29
33 | PSLLELLWEKLLAAFPNLANLSRT | 2.29
34 | PSLLELTWEKLLAAFPNLANLSRT | 1.28
35 | PSLLELFWEKLLAAFPNLANLSRT | 1.86
36 | PSLLELGWEKLLAAFPNLANLSRT | 1.96
37 | PSLLELEWEKLLAAFPNLANLSRT | 2.74
38 | PSLLELDWEKLLAAFPNLANLSRT | 2.14
39 | PSLLELAWEKLEAAFPNLANLSRT | 2.66
40 | PSLLELAWEKLFAAFPNLANLSRT | 2.3
41 | PSLLELAWEKLNAAFPNLANLSRT | 2.32
42 | PSLLELAWEKLIAAFPNLANLSRT | 2.12
43 | PSLLELAWEKLGAAFPNLANLSRT | 2.66
44 | PSLLELAWEKLDAAFPNLANLSRT | 3.04
45 | PSLLELAWEKLPAAFPNLANLSRT | 2.17
46 | PSLLELAWEKLHAAFPNLANLSRT | 2.33
47 | PSLLELAWEKLCAAFPNLANLSRT | 1.83
48 | PSLLELAWEKLMAAFPNLANLSRT | 1.85

Row | Variant | protein stability index
49 | PSLLELAWEKLAAAFPNLANLSRT | 2.52
50 | PSLLELAWEKLKAAFPNLANLSRT | 3.22
51 | PSLLELAWEDLLAAFPNLANLSRT | 1.84
52 | PSLLELAWERLLAAFPNLANLSRT | 1.9
53 | PSLLELAWELLLAAFPNLANLSRT | 2.42
54 | PSLLELAWEMLLAAFPNLANLSRT | 2
55 | PSLLELAWEVLLAAFPNLANLSRT | 2.07
56 | PSLLELAWEYLLAAFPNLANLSRT | 1.75
57 | PSLLELAWESLLAAFPNLANLSRT | 1.72
58 | PSLLELAWECLLAAFPNLANLSRT | 1.63
59 | PSLLELAWETLLAAFPNLANLSRT | 1.69
60 | PSLLELAWEQLLAAFPNLANLSRT | 1.95
61 | PSLLELAWENLLAAFPNLANLSRT | 1.48
62 | PSLLELAWEGLLAAFPNLANLSRT | 1.93
63 | PSLLELAWEPLLAAFPNLANLSRT | 1.64
64 | PSLLELAWEFLLAAFPNLANLSRT | 2.25
65 | PSLLELAWEALLAAFPNLANLSRT | 1.84
66 | PSLLELAWEHLLAAFPNLANLSRT | 2.09
67 | PSLLELAWEWLLAAFPNLANLSRT | 2.53
68 | PSLLELAWEILLAAFPNLANLSRT | 1.7
69 | PSLLELAWEELLAAFPNLANLSRT | 1.57
70 | PSLLRLAWEKLLAAFPNLANLSRT | 2.29
71 | PSLLALAWEKLLAAFPNLANLSRT | 2.28
72 | PSLLGLAWEKLLAAFPNLANLSRT | 2.42

Row | Variant | protein stability index
73 | PSLLYLAWEKLLAAFPNLANLSRT | 2.47
74 | PSLLTLAWEKLLAAFPNLANLSRT | 2.31
75 | PSLLHLAWEKLLAAFPNLANLSRT | 2.39
76 | PSLLKLAWEKLLAAFPNLANLSRT | 2.28
77 | PSLLNLAWEKLLAAFPNLANLSRT | 2.72
78 | PSLLFLAWEKLLAAFPNLANLSRT | 2.06
79 | PSLLPLAWEKLLAAFPNLANLSRT | 1.34
80 | PSLLCLAWEKLLAAFPNLANLSRT | 1.97
81 | PSLLLLAWEKLLAAFPNLANLSRT | 2.19
82 | PSLLWLAWEKLLAAFPNLANLSRT | 1.93
83 | PSLLVLAWEKLLAAFPNLANLSRT | 1.71
84 | PSLLQLAWEKLLAAFPNLANLSRT | 2.49
85 | PSLLDLAWEKLLAAFPNLANLSRT | 2.88
86 | PSLLILAWEKLLAAFPNLANLSRT | 1.8
87 | PSLLSLAWEKLLAAFPNLANLSRT | 3.15
88 | PSLLMLAWEKLLAAFPNLANLSRT | 2.04
89 | PSLLECAWEKLLAAFPNLANLSRT | 1.92
90 | PSLLEKAWEKLLAAFPNLANLSRT | 3.43
91 | PSLLEWAWEKLLAAFPNLANLSRT | 3.58
92 | PSLLEYAWEKLLAAFPNLANLSRT | 1.95
93 | PSLLEAAWEKLLAAFPNLANLSRT | 1.94
94 | PSLLEIAWEKLLAAFPNLANLSRT | 2.06

Reference: the supplement of paper PMC10567573
